Kd data for two molecules are collected here from patent publication US20250042968A1, “EPHRIN LIGAND MIMETIC PEPTIDES FOR THE TREATMENT OF NEURODEGENERATIVE DISEASES” (University of Miami, priority 2022, published 2025).

Holding throughout (assay): BLI
Conditions in all cases: modification not given

In one assay the target is T1, EphB3, P54753.
T1 chain: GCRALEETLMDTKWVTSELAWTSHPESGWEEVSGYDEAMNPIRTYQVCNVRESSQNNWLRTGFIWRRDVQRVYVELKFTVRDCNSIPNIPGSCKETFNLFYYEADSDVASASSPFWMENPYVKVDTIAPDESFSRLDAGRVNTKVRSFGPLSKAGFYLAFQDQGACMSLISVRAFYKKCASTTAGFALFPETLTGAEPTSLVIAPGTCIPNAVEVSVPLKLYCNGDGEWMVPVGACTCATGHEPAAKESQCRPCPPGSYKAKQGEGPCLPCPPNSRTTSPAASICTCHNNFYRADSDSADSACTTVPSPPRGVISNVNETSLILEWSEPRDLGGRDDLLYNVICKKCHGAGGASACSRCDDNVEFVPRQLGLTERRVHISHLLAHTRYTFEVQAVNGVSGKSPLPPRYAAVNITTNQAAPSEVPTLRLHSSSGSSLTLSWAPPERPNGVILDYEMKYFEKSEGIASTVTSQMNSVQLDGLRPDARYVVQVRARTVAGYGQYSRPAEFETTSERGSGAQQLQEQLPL

Another assay concerns the target EphA2, P29317.
For the next assay, the target named is T2, EphB2, P29323.
T2 chain: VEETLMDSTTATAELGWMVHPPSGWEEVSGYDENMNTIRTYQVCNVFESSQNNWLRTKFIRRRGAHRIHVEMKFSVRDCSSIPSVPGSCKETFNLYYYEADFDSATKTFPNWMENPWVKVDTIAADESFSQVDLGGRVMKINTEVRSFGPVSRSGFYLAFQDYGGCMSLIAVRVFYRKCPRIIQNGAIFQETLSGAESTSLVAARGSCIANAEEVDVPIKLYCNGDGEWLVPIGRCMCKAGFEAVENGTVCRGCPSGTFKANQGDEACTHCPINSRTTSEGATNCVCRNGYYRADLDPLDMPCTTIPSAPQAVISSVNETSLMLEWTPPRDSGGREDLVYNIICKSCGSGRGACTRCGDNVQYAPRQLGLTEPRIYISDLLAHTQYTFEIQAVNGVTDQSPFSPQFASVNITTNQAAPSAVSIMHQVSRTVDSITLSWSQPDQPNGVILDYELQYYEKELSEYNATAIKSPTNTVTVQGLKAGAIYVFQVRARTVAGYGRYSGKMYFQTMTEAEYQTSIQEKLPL

By Kd is commonly meant the equilibrium constant for the complex coming apart. A lower Kd goes with a tighter complex.

EphA2, P29317, sequence (P29317 25-534): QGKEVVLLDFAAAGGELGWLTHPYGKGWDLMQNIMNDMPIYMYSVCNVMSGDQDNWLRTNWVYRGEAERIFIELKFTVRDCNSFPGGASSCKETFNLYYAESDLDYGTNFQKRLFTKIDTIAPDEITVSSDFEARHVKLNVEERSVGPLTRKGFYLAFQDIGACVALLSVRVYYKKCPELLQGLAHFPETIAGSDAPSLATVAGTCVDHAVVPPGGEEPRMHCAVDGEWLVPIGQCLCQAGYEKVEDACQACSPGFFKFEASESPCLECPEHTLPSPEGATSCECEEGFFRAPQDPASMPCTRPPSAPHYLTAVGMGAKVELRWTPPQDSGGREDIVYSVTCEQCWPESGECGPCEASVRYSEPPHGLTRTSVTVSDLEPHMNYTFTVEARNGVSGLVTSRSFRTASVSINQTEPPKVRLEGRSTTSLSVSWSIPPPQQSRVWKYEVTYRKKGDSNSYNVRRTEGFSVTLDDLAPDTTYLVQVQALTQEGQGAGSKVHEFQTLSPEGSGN

Regarding KFQLFSPFLWGFEF [xEFN_RBD2], the Kd in the assay with EphB3, P54753 is 5070 µM.
For QEFSPNLWGLEFKKN [xEFN_RBD4], the Kd with EphA2, P29317 worked out at 178 µM; in the assay with EphB2, P29323, 263 µM; with EphB3, P54753 it was 156 µM.
